The source of these data is article PMC2577008, “The Transcriptional Repressor Protein NsrR Senses Nitric Oxide Directly via a [2Fe-2S] Cluster” (PLoS ONE, 2008).

In data set [1] the target is T1, [2Fe-2S] NsrR (holo) (Streptomyces coelicolor, UniProt Q9L132 1-148).
T1 sequence: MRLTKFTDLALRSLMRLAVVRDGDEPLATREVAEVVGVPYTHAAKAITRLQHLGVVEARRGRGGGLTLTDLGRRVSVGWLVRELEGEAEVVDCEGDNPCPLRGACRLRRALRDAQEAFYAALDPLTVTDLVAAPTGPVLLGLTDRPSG
In words: analytical ultracentrifugation (sedimentation equilibrium); [2Fe-2S] cluster; 2 uM DNA, 10 uM NsrR; EMSA: 10 mM Tris-HCl pH 7.5, 60 mM KCl, on ice 2 min, ~20 ng probe, NsrR diluted to 500 nM in 50 mM Tris pH 7.0 (legend: 50 mM Tris pH 7.0, 100 mM NaCl); AUC: 5. To be noted: protein: recombinant; tags: none stated (pET21a; reverse primer includes the stop codon); chain copies: 2; blunt. In general terms: Mobility shift assays separate free from complexed probe on a gel.

Data set [2] deals with the molecule itself. In words: AUC; sedimentation equilibrium at 16,000, 18,000 and 20,000 rpm, absorbance at 260 nm; 10 uM monomeric NsrR with 2 uM 30 bp double-stranded oligonucleotide (hmpA2 or hmpA1 binding site); 50 mM Tris pH 8.0 (legend: pH 7.0), 100 mM NaCl, 1 mM dithiothreitol; one-component fit; the mass of the DNA-protein complex is measured.
For data set [3], the target named is T1, [2Fe-2S] NsrR (holo). The data set is described as follows: analytical ultracentrifugation (sedimentation equilibrium); [2Fe-2S] cluster; 2 uM DNA, 10 uM NsrR; mass 17.4 to 47.3 kDa, homodimer; EMSA: 10 mM Tris-HCl pH 7.5, 60 mM KCl, on ice 2 min, ~20 ng probe, NsrR diluted to 500 nM in 50 mM Tris pH 7.0 (legend: 50 mM Tris pH 7.0, 100 mM NaCl); AUC: 5. To be noted: protein: recombinant; tags: none stated (pET21a; reverse primer includes the stop codon); chain copies: 2; blunt.

The target in data set [4] is T1, [2Fe-2S] NsrR (holo). In words: analytical ultracentrifugation (sedimentation equilibrium); [2Fe-2S] cluster; 2 uM DNA, 10 uM NsrR; mass 45.0 kDa with NsrR; EMSA: 10 mM Tris-HCl pH 7.5, 60 mM KCl, on ice 2 min, ~20 ng probe, NsrR diluted to 500 nM in 50 mM Tris pH 7.0 (legend: 50 mM Tris pH 7.0, 100 mM NaCl); AUC: 5. To be noted: protein: recombinant; tags: none stated (pET21a; reverse primer includes the stop codon); chain copies: 2; blunt.

B1: Control oligonucleotide (nsrR coding sequence) (dsDNA)
DNA 1: CCGCCTGCAGGCCCTGGGTGTG
DNA 2: CACACCCAGGGCCTGCAGGCGG
B1: in data set [1], the binding result is “no binding”.

B2: NsrR from Streptomyces coelicolor ([2Fe-2S] NsrR) (natural protein, UniProt Q9L132 1-148, looked up)
chain: MRLTKFTDLALRSLMRLAVVRDGDEPLATREVAEVVGVPYTHAAKAITRLQHLGVVEARRGRGGGLTLTDLGRRVSVGWLVRELEGEAEVVDCEGDNPCPLRGACRLRRALRDAQEAFYAALDPLTVTDLVAAPTGPVLLGLTDRPSG
notes: NsrR (SCO7427), Rrf2 family transcriptional repressor of Streptomyces coelicolor; nsrR gene amplified from genomic DNA with primers from the start codon (CATATG...) to the stop codon (TCA... on the reverse primer); calculated monomer mass 15.9 kDa; Carries a [2Fe-2S] cluster as purified (on average 28% cluster incorporation); also called SCO7427; holo [2Fe-2S]; NsrR
By stoichiometry N is commonly meant a count of units in the complex or per binding partner. With B2, in data set [2], the “stoichiometry N” value was determined as 2.

B3: hmpA2 30 bp oligonucleotide (dsDNA)
DNA 1: GGAAAACAAGCATCTGAGATCCCAGTTCGG
DNA 2: CCGAACTGGGATCTCAGATGCTTGTTTTCC
Regarding B3, in data set [3], the binding result is listed as “binds”.

B4: hmpA1 30 bp oligonucleotide (dsDNA)
DNA 1: CTAAAACACGAATATCATCTACCAATTAAG
DNA 2: CTTAATTGGTAGATGATATTCGTGTTTTAG
For B4, in data set [4], the binding result is “binds”.
